# Experimental data from patent US20250326825A1, “ANTI-FABP4 ANTIBODIES AND THEIR USES” (THE HONG KONG POLYTECHNIC UNIVERSITY, priority 2024, published 2025).
# Key:
# [1] = limits clinical use; cited from earlier work
# [2] = tested on: hepatocellular carcinoma cells; test: Cancer stem cell functional assays (overall); assay type: cell-based, human; settings: hepatocellular carcinoma cells in ADCM (FIG. 9A to 9D)
# Method: In summary, the methods shown herein were used to evaluate the interaction between differentiated adipocytes and HCC cells using a co-culture system. The conditioned medium of the adipocytes was profiled using Orbitrap liquid chromatography mass spectrometry. The functional role of FABP4 in the regulation of liver cancer stem cells was evaluated by various cancer stem cells functional assays. In vivo functional characterization of FABP4 was performed in Fabp4 knockout mice. Molecular pathways mediating phenotypic alterations were identified using mass spectrometry, RNA sequencing analysis, and pathway analysis. The therapeutic efficacy of monoclonal neutralising antibody against FABP4 was evaluated in two mouse models, a hepatocellular carcinoma (HCC) xenograft model and a MASLD-HCC model.
# [3] = tested on: hepatocellular carcinoma cells; test: Sphere formation / limiting dilution sphere analysis (self-renewal); assay type: cell-based, human
# Method: Sphere formation assay—Three to five hundred cells of PLC/PRF/5, Huh7 and hepatocellular carcinoma organoids (HK-HCC P1 and HCC #23) were seeded to 24-well plates coated with poly (2-hydroxyethyl methacrylate) (polyHEMA, Sigma Aldrich). Cells were grown in 500 μl of either conditioned media or serum-free 0.25% methylcellulose (Sigma-Aldrich) DMEM/F12 medium supplemented with 4 μg/mL insulin (Sigma-Aldrich), B27 (Invitrogen) and recombinant human FABP4 (rhFABP4, Biovision) at a concentration of either 20 ng/ml or 100 ng/ml. The number of tumourspheres (diameter larger than 100 μm) was counted under microscope after 8 to 12 days.
# Limiting dilution assay—Parental or shITGB1 PLC/PRF/5 and Huh7 cells were cultured in a 96-well plate coated with polyHEMA with 200 μl serum-free 0.25% methylcellulose DMEM/F12 medium supplemented with 4 μg/mL insulin, B27 and rhFABP4 when appropriate. Sphere formation was scored after 8 to 12 days under a phase contrast microscope. The frequency of sphere-forming cell was calculated accordingly using an extreme limiting dilution algorithm (ELDA).
# [4] = tested on: hepatocellular carcinoma patient-derived organoids (HK-HCC P1 and HCC #23); test: Hepatocellular carcinoma patient-derived organoid assays; assay type: cell-based, human
# Excerpt: Hepatocellular carcinoma patient-derived organoids and culture conditions—Hepatocellular carcinoma tissue was obtained from patients undergoing hepatectomy at Queen Mary Hospital, Hong Kong. Samples were collected from patients who had not received any previous local or systemic treatment prior to operation. For organoid cultures, cells were isolated and cultured according to protocol. Hepatocellular carcinoma patient-derived organoids labelled HCC #23 was gift from Dr. Meritxell Huch of The Gudon Institute at the University of Cambridge.
# Cell viability assay—Cell viability of organoid cultures treated with specified concentrations of rhFABP4 for 6 days was evaluated using CellTiter-Glo® Luminescent Cell Viability Assay (Promega) according to manufacturer's protocol.
# Sphere formation assay—Three to five hundred cells of PLC/PRF/5, Huh7 and hepatocellular carcinoma organoids (HK-HCC P1 and HCC #23) were seeded to 24-well plates coated with poly (2-hydroxyethyl methacrylate) (polyHEMA, Sigma Aldrich). […] The number of tumourspheres (diameter larger than 100 μm) was counted under microscope after 8 to 12 days.
# Migration and invasion assays—Migration assays were performed using polycarbonate membrane transwell inserts with pore size of 8 μm (Millipore). […] Photographs of five randomly selected fields of the fixed cells were captured and the cells were counted using ImageJ.
# [5] = tested on: PI3K/AKT/β-catenin signalling; test: Western blot of AKT/GSK3β/β-catenin signalling in hepatocellular carcinoma cells; assay type: cell-based, human; settings: ADCM or rhFABP4 treatment (FIG. 5D)
# Excerpt: Western blot analysis—Whole cell lysates were extracted using either NETN buffer supplemented with protease inhibitor cocktail or direct lysis. Protein lysate was separated by SDS-polyacrylamide gel electrophoresis (SDS-PAGE) and transferred to polyvinylidene difluoride membrane (Millipore) for western blot analyses. Primary antibodies FABP4[EPR3579](1:1000, ab92501, Abcam), pAKT(Ser473) (D9E), pGSK3β(Ser9) (D3A4), AKT and β-catenin (D10A8) (1:1000, #4060S, #9322S, #9272S & #8480S, Cell Signaling Technology), GSK3β(clone 7) (1:1000, #610202, clone 7, BD Transduction Laboratories), DDK (OTI4C5) (1:1000,TA50011-100, Origene), ITGB1 (1:1000, 12594-1-AP, Proteintech) and β-ACTIN (AC-74) (1:5000, #A5316, Sigma Aldrich) were incubated at 4° C. overnight. After washing, the membrane was incubated with horseradish peroxidase-conjugated anti-mouse or rabbit antibody (GE HealthCare). The signals were visualized using the enhanced chemiluminescence method. Blot images were quantified by densitometry using ImageJ software. The protein expression was normalized to β-actin and expressed as fold change relative to respective controls.
# [6] = tested on: hepatocellular carcinoma cells; test: Migration and invasion transwell assays; assay type: cell-based, human; settings: rhFABP4 (FIG. 2G)
# Method: Migration and invasion assays—Migration assays were performed using polycarbonate membrane transwell inserts with pore size of 8 μm (Millipore). Invasion assays were performed using self-coated Matrigel (BD Biosciences) transwell inserts. Hepatocellular carcinoma cell lines (PLC/PRF/5 and Huh7) or patient-derived organoids (HK-HCC P1 and HCC #23) in serum-free medium were seeded in upper chamber, while the lower chamber was supplemented with either ADCM or 100 ng/mL rhFABP4 in serum-free medium as a chemoattractant. Serum-free DMEM was used as a negative control. Cells were incubated in humidified incubation at 37° C. for 48 hours. The transwell membranes were fixed with methanol and stained with 1% crystal violet. The membranes were cleaned and air-dried. Photographs of five randomly selected fields of the fixed cells were captured and the cells were counted using ImageJ.
# PLC/PRF/5 cells = test: In vivo tumorigenicity assay (limiting dilution), subcutaneous engraftment of pretreated PLC/PRF/5 cells; parameters: species or system mouse (mouse (mouse (human cell xenograft) cell xenograft) cell xenograft); settings: PLC/PRF/5 pretreated with rhFABP4 at 100 ng/ml, NOD/SCID mice
# Method: (§1) In vivo tumorigenicity assay—In vivo evaluation of tumorigenicity was performed with either male non-obese diabetic/severe combined immunodeficient (NOD/SCID) or NOD/SCID gamma mice, 4 to 6 weeks of age, by induction of tumour xenografts. Cells were suspended in 1:1 culture medium and BD Matrigel Matrix (BD Biosciences) and subcutaneously injected into the flanks of the mice, which were kept under observation. Briefly, each mouse received two injections of cells in both flanks. The cells were pretreated with either rhFABP4 (100 ng/ml) or ADCM for 24 hours, and, with their control group, were injected into NOD/SCID and NOD/SCID gamma mice, respectively. Tumours were harvested at the end of the experiment for documentation. Tumour-initiating cell frequency was calculated using Extreme Limiting Dilution Analysis (ELDA) software. No specific randomization method was used. Sample size of animals was chosen based on p-values. […] Mice were sacrificed if the percentage of body weight loss is greater than 20% including the tumour mass.
# [7] = tested on: hepatocellular carcinoma cells; test: Annexin-V apoptosis assay (drug resistance to doxorubicin or sorafenib); assay type: cell-based, human; settings: rhFABP4 pretreatment (FIG. 2H)
# Method: Annexin-V apoptosis assay—Cells were stained by FITC-conjugated Annexin-V (BioVision) and propidium iodide (PI) (Invitrogen) in Annexin-V binding buffer (BD Biosciences) at room temperature for 30 minutes. Apoptosis percentage was determined using BD Accuri C6 flow cytometer and FACSDiva software (BD Biosciences).
# β-catenin = test: Beta-catenin TCF binding luciferase (TOP/FOP) reporter assay; assay type: cell-based, human; settings: ADCM or rhFABP4 for 24 hours (FIG. 5E)
# Excerpt: Beta-catenin TCF binding luciferase reporter assay—β-catenin activity was examined using luciferase reporter assay of TCF/LEF-dependent transcription (TOP/FOPFLASH reporter assay). Either firefly luciferase pSuper8XTOPflash or pSuper8XFOPflash constructs (gifts from Dr. Moon R, University of Washington, USA), together with Renilla luciferase construct pRL-CMV (Promega, Madison, WI, USA) for normalization of transfection efficiency, were transfected using Lipofectamine 2000. Luciferase activities were assayed using Dual-Luciferase Reporter Assay System (Promega) according to manufacturer's protocol.
# [8] = tested on: hepatocellular carcinoma cells; test: Flow cytometric analysis of liver CSC markers; assay type: cell-based, human; settings: rhFABP4 20 ng/ml and 100 ng/ml (FIG. 2F)
# Method: Flow cytometric analysis—Cells were stained by Phycoerythrin (PE)-conjugated CD47 and CD90 antibodies (#536046 & #555596, BD Biosciences) in PBS with 2% FBS at 4° C. for 30 to 60 minutes. Isotype-matched mouse immunoglobulins served as controls. Samples were analysed using BD Accuri C6 flow cytometer and FACSDiva software (BD Biosciences).
# ITGB1 = molecular target: T1, ITGB1 (Homo sapiens, UniProt P05556); test: Mass spectrometry / coimmunoprecipitation of FABP4 binding partner; settings: biotin-labelled rhFABP4, Huh7 membrane surface
# T1 construct: endogenous in cells; host or cells: Huh7
# Method: Biotinylation of rhFABP4 and Streptavidin capturing of membrane protein—rhFABP4 was biotin-labelled and crosslinked with sulfosuccinimidyl-2-[6-(biotinamido)-2-(p-azidobenzamido) hyxanoamido]ethyl-1,3′-ithiopropionate) (Sulfo-SBED, A39260, Thermo Fisher Scientific) according to manufacturer's instructions. In brief, 50 μg of rhFABP4 (#4504, BioVision) was incubated with 1 mg of dissolved Sulfo-SBED at room temperature for 30 minutes. The reaction mixture was desalted using Amicon® Ultra-0.5 centrifugal filter device with a 3,000 Molecular Weight Cut Off (Millipore, Germany). The desalted biotinylated rhFABP4 was incubated in PBS with adherent Huh7 cells at room temperature for 10 minutes. The cell surface proteins interacting with biotinylated rhFAPB4 was captured by the photoreactive aryl azide moiety using long wave-UV at 360 nm. The labelled proteins were isolated by NeutrAvidin Agarose slurry and reduced using Pierce™ Cell Surface Protein Biotinylation and Isolation Kit (#A44390, Thermo Fisher Scientific). The interacting rhFABP4-surface protein complex was isolated, and the disulfide bond reduced, resulting in the biotin label being transferred to the interacting proteins. […]
# Huh7 cells = test: In vivo tumorigenicity assay (limiting dilution), subcutaneous engraftment of pretreated Huh7 cells; parameters: species or system mouse xenograft; settings: Huh7 pretreated with rhFABP4 at 100 ng/ml, NOD/SCID mice
# Method: as §1
# T1 sequence (P05556 21-798): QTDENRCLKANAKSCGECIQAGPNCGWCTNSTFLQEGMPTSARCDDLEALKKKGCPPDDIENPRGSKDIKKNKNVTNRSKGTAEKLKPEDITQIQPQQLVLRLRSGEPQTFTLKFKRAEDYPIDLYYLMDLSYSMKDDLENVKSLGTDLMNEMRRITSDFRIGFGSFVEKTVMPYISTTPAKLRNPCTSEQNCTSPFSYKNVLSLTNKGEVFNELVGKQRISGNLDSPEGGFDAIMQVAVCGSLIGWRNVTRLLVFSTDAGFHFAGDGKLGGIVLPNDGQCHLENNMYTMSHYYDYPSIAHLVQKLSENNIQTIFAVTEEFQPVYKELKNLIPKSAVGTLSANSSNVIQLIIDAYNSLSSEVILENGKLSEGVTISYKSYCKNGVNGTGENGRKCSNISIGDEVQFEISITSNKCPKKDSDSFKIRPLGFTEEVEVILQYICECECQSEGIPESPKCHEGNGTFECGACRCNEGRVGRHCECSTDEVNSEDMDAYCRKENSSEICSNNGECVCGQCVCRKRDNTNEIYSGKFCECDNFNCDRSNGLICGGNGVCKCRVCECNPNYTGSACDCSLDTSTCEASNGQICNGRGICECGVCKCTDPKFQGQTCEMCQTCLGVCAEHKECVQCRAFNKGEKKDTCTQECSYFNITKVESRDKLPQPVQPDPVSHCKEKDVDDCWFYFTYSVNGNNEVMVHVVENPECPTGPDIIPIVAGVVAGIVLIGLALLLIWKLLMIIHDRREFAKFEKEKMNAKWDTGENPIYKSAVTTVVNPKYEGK
molecule,measurement,setting,value
CCc1c(-c2ccccc2)c(-c2ccccc2)nn1-c1ccccc1-c1cccc(OCC(=O)O)c1 [BMS-309403],Side effects,[1],acute cardiac depressant effect
same,Effects of ADCM on liver cancer stem cell properties,[2],attenuation
same,Enhancing self-renewal ability of ADCM (tumoursphere formation),"[3]; PLC/PRF/5, ADCM, inhibitor at 1 μM",suppressed
"rhFABP4: recombinant human FABP4 protein (Biovision) (protein, UniProt P15090 2-132, looked up) Fatty acid-binding protein, …: CDAFVGTWKLVSSENFDDYMKEVGVGFATRKVAGMAKPNMIISVNGDVITIKSESTFKNTEISFILGQEFDEVTADDRKVKSTITLDGGVLVHVQKWDGKSTTIKRKREDDKLVVECVMKGVTSTRVYERA",Self-renewal of patient-derived organoids,[4]; rhFABP4 (FIG. 4B),confer self-renewal
same,Size of organoids and their proliferative rate,"[4]; rhFABP4, 6 days, CellTiter-Glo (FIG. 4C)",increase
same,AKT phosphorylation at Ser473,[5],activated
same,GSK3β phosphorylation at Ser9,[5],inactivation
same,Total β-catenin,[5],accumulation
same,Cell migration and invasion,[6],promote
same,Estimated CSC frequency,PLC/PRF/5 cells; extreme limiting dilution,1/2108
same,"Tumor incidence rate, 1 × 10^3 cells","PLC/PRF/5 cells; subcutaneous, 1 × 10^3 cells",3/5
same,"Tumor incidence rate, 5 × 10^3 cells","PLC/PRF/5 cells; subcutaneous, 5 × 10^3 cells",4/5
same,Resistance to doxorubicin and sorafenib treatment,[7],promote
same,Transactivation of β-catenin (TOP/FOP reporter),β-catenin,enhanced
same,Expression of liver CSC markers,[8],promote
same,Self-renewal (sphere formation),[3]; rhFABP4 20 ng/ml and 100 ng/ml (FIG. 2D),promote
same,Interaction with membrane receptor ITGB1,ITGB1,directly interacts
same,Estimated CSC frequency,Huh7 cells; extreme limiting dilution,1/3404
same,"Tumor incidence rate, 1 × 10^3 cells","Huh7 cells; subcutaneous, 1 × 10^3 cells",3/5
same,"Tumor incidence rate, 1 × 10^4 cells","Huh7 cells; subcutaneous, 1 × 10^4 cells",4/5
same,"Tumor incidence rate, 5 × 10^3 cells","Huh7 cells; subcutaneous, 5 × 10^3 cells",4/5
